Data taken from the DeepSol protein solubility set.

Experiment: soluble on expression in E. coli; label from the status in PepcDB or PDB records
For “GAMGMESLFPNKGEIIRELLKDPLILKNDSKRSNGSELELDSSDLLQREAILANELNILDNLKTFLNLIKEVKTNLNILELENCYYSLQSLRKKMRNNAAYLKQSFNFQQSISTYVDTLHLELVSTLYKILTNGFWKITENSIQFTPTVEWGKDKVHIEYDTFMDFVAQQYFPKGSLDNQAWFILDMTSADSQEQVRAKLNTIMKEYMNLSRIVSMIKNSIFISGKEISYENEKNILVFSKSSSHGQHCVSTVLTSFEAVCDFMLDGLAFRDRKTLSYELGPLFNTEFTKFVKNNASIILESLDSPLKNLVSVINNKLTRLVAKSEVTNWTHSGKEIQDLLMNKQLYYNLLLDKVLESHISEIRS”, the “soluble on expression in E. coli” value was “soluble”. With “GAPSQGATANAETQTTIPLGDTSQNALDWPGVYEGVLPCASCEGIQTTLTLQADNSFELKSIYLGKDESIFKVAGKFDWDSNGSKITLSDGSKYLVGENQLLMLDTEGNRITGGLAEHYILKKKGM” the “soluble on expression in E. coli” value was “soluble”. With “GAQRRNEIQVPDLDGYTTLKCDFHMHSVFSDGLVWPTVRVDEAYRDGLDAISLTEHIEYRPHKQDVVSDHNRSFDLCREQAEKLGILLIKGSEITRAMAPGHFNAIFLSDSNPLEQKDYKDAFREAKKQGAFMFWNHPGWDSQQPDTTKWWPEHTALYQEGCMHGIEVANGHLYMPEAIQWCLDKNLTMIGTSDIHQPIQTDYDFEKGEHRTMTFVFAKERSLQGIREALDNRRTAAYFHELLIGREDLLRPFFEKCVKIEEVSRNEQGVTLSITNVTDLVLKLKKTAHDTLLVYFRDMTLKPHTRYTVRIGFKQGIKGGDVNFEVTNFIVAPDKGLKYTISL” the “soluble on expression in E. coli” value was “soluble”. With “GATCLSQYCADKARDGVCDEACNSHACQWDGGDCSLTMENPWANCSSPLPCWDYINNQCDELCNTVECLFDNFECQGNSKTCKYDKYCADHFKDNHCNQGCNSEECGWDGLDCAADQPENLAEGTLVIVVLMPPEQLLQDARSFLRALGTLLHTNLRIKRDSQGELMVYPYYGEVAGSKVFLEIDNRQCVQDSDHCFKNTDAAAALLASHAIQGTLSYPLVSVVSESLTPERTQ” the “soluble on expression in E. coli” value was “soluble”. For “GCDLERYPLTDLSEETFWNSESNAELALTSLYRGSLTDGVEYNPSDWWSYHGMIMMEHLSDNAFDRRGENNPFFKISSGNLTADNAFIKRYWETSYKRIGYCNRFLVGIQNSSESEKKTRMIAEARFLRATQYFYLASYFKNVPLVENVLTGEEANNVTKTSQADILKWCVTEFTAAAADLPRFSAIPAGEAGRACKQAALAFLGRTCMLQKDWKSGAKAFHDIMELGDNAINANYQELFYPSTGTSNKENIFYIQYLENYLGTGLPQHALSAKDGGWSLVNPAADLYESYEFKDGTPFSYDDPRYDPSNLGKDRDPRLDYTIYYNGAIFMGTEYKMSPDYSAAKKEKLDYTSEASRTGFMMRKYFEESTPINDVQSANGLTPVIRYAEVLLGYLECLVEDNQTITQGILDETINAVRGRASVNMPPVTEVTPAKLREIVRHERRIELAMEGIRYWDIMRWGIAHEVLSQKIWGAPYPGSTQYATTTKEVDPTGNYRWYVGKRAFRNPTDYTWPIPQSEQNINPNLRD”, the “soluble on expression in E. coli” value was “soluble”. For “GDFIVVQSTTSTQNSGLLDHILPAFEAETGIEVRVVAVGTGQAIRNAANGDGDVLLVHAKAAEEKFVAEGWGVERFDVMYNDFVLVGPASDPAGVRGGSDIVAALSAIAGAEAPFASRGDDSGTHKAELRHWASAGIDVSAASGGWYRETGSGMGATLNLAAGMGAYALSDRATWIAFGNKGDLVVAVEGDARLFNQYGVILVNPAKHPGVKAEAGQRFIDWLTGDEGQAAIAGYTL”, the “soluble on expression in E. coli” value was “not soluble”. With “GDQPVINFGIISTESSQNLKSIWEPFLKDMSQQTGYQVKAFFAPDYAGIIQGMRFDKVDIAWYGNKAAMEAVDRAHGEIFAQTVAASGAPGYWSLLIANKDSKIDSLEDMLANAKSLTFGNGDPNSTSGYLVPGYYVFAKNNVDPVKAFKRTLNSSHEVNALAVANKQVDVATFNTEGMERLELTQPEKARQLKVIWKSPLIPGDPLVWRNNLSDEQKNKLRDFFFKYGANAEQKKVLADLQWSKFQASDDDQLLPIRQLELFKQRTDVANNANLGAEEKAAKLKALDEELAKLEKRMAEREQKTAANAG” the “soluble on expression in E. coli” value was “soluble”. In the case of “GDTKEQRILNHVLQHAEPGNAQSVLEAIDTYCEQKEWAMNVGDKKGKIVDAVIQEHQPSVLLELGAYCGYSAVRMARLLSPGARLITIEINPDCAAITQRMVDFAGMKDKVTLVVGASQDIIPQLKKKYDVDTLDMVFLDHWKDRYLPDTLLLEECGLLRKGTVLLADNVICPGAPDFLAHVRGSSCFECTHYQSFLEYREVVDGLEKAIYKGP”, the “soluble on expression in E. coli” value is reported as “soluble”. For “GEEGNSSELPLSAEDAKKLTELAENVLQGWDVQAEKIDVIQGNQMALVWKVHTDSGAVCLKRIHRPEKKALFSIFAQDYLAKKGMNVPGILPNKKGSLYSKHGSFLFVVYDWIEGRPFELTVKQDLEFIMKGLADFHTASVGYQPPNGVPIFTKLGRWPNHYTKRCKQMETWKLMAEAEKEDPFSQLYLQEIDGFIEDGLRIKDRLLQSTYVPWTEQLKKSPNLCHQDYGTGNTLLGENEQIWVIDLDTVSFDLPIRDLRKMIIPLLDTTGVWDDETFNVMLNAYESRAPLTEEQKQVMFIDMLFPYELYDVIREKYVRKSALPKEELESAFEYERIKANALRQLI”, the “soluble on expression in E. coli” value was “soluble”. For “GEKGTTGTGNAALDNIFERKSVRTYLNKGVEKEKIDLMLRAGMSAPSGKDVRPWEFVVVSDRAKLDSMAAALPYAKMLTQARNAIIVCGDSARSFYWYLDCSAAAQNILLAAESMGLGAVWTAAYPYEDRMEVVRKYTHLPENILPLCVIPFGYPATKEQPKQKYDEKKIHYNQY”, the “soluble on expression in E. coli” value was “soluble”. With “GEKTYVKRLVKILLLGAGESGKSTFLKQMRIIHGQDFDQRAREEFRPTIYSNVIKGMRVLVDAREKLHIPWGDNKNQLHGDKLMAFDTRAPMAAQGMVETRVFLQYLPAIRALWEDSGIQNAYDRRREFQLGESVKYFLDNLDKLGVPDYIPSQQDILLARRPTKGIHEYDFEIKNVPFKMVDVGGLRSERKRWFECFDSVTSILFLVSSSEFDQVLMEDRQTNRLTESLNIFETIVNNRVFSNVSIILFLNKTDLLEEKVQVVSIKDYFLEFEGDPHCLRDVQKFLVECFRGKRRDQQQRPLYHHFTTAINTENIRLVFRDVKDTILHDNLKQLMLQ” the “soluble on expression in E. coli” value was “soluble”. With “GGLTEICRKPVSPGCISSVSDWLISIGLPMYAGTLSTAGFSTLSQVPSLSHTCLQEAGITEERHIRKLLSAARLFKLPPGPEAM” the “soluble on expression in E. coli” value was “soluble”. In the case of “GHHHHHHAIAENLYFQSEVSKANGTENNVEKFDAATQEATYLDEADVDAELEAMKKRLQEMEEEANRLKEVQEQSASEVPSSEEVDRRSVYVGNVDYGSTPEELQAHFKECGTINRVTILCDKFTGHPKGFAYIEFATEEGANNAVILNESLFRGRNLKVSIKRTNVPGISTTDRGRGRGFPRGIGFRGRGGLRGGFRGRGYHGFRGRGRMTPY”, the “soluble on expression in E. coli” value is reported as “not soluble”. For “GHMAAPILKDVVAYVEVWSSNGTENYSKTFTTQLVDMGAKVSKTFNKQVTHVIFKDGYQSTWDKAQKRGVKLVSVLWVEKCRTAGAHIDESLFPAANMNEHLS”, the “soluble on expression in E. coli” value was “soluble”. For “GHMPPWTARQDSTTGLYAPVTPAGRVLLDRLAAHLPRIRSTAAEHDRDGTFPTDTFDALRKDGLMGATVPAELGGLGVDRLYDVAVALLAVARADASTALALHMQLSRGLTLGYEWRHGDERARTLAERILRGMVAGDAVVCSGIKDHHTAVTTLRPDGAGGWLLSGRKTLVSMAPVGTHFVINARTDGTDGPPRLASPVVTRDTPGFTVLDNWDGLGMRASGTVDIVFDDCPIPADHVLMRDPVGARNDAVLAGQTVSSVSVLGVYVGVAQAAYDTAVAALERRPEPPQAAALTLVAEIDSRLYALRATAGSALTAADALSADLSGDMDERGRQMMRHFQCAKLAVNRLAPEIVSDCLSLVGGASYTAGHPLARLLRDVQAGRFMQPYAYVDAVDFLSAQALGIERDNNYMSTWAKRSGGNGKSADAAGPRRPTPTSR”, the “soluble on expression in E. coli” value was “soluble”. For “GHMSAHVQQDKYETNVSYKKLNQLAPYFKGFDGSFVLYNEREQAYSIYNEPESKQRYSPNSTYKIYLALMAFDQNLLSLNHTEQQWDKHQYPFKEWNQDQNLNSSMKYSVNWYYENLNKHLRQDEVKSYLDLIEYGNEEISGNENYWNESSLKISAIEQVNLLKNMKQHNMHFDNKAIEKVENSMTLKQKDTYKYVGKTGTGIVNHKEANGWFVGYVETKDNTYYFATHLKGEDNANGEKAQQISERILKEMELI”, the “soluble on expression in E. coli” value was “soluble”. For “GHMYQHHNWQGALLDYPVSKVVCVGSNYAKHIKEMGSAVPEEPVLFIKPETALCDLRQPLAIPSDFGSVHHEVELAVLIGATLRQATEEHVRKAIAGYGVALDLTLRDVQGKMKKAGQPWEKAKAFDNSCPLSGFIPAAEFTGDPQNTTLSLSVNGEQRQQGTTADMIHKIVPLIAYMSKFFTLKAGDVVLTGTPDGVGPLQSGDELTVTFDGHSLTTRVLGS”, the “soluble on expression in E. coli” value was “soluble”. With “GIDIDLQMLGERLLKNKIGSIVAIEPETGEILCMVSSPDFDPRLMIGRQRGKNHLMLQRDPMKPLLNRSIMGVYPPGSTFKTAQALTFLQEGIIQTNTPAFPCAHGFNYGSLHVGCHAHGSPLPLIPAIATSCNSYFCWGLFRMFGDRKYGSSQNAITVWKDHMVSQGFGYKLGVDLPGEKRGLIPNAQFYDKAYRGRWNGLTVISIAIGQGEILATPLQIANLGATIANRGHFITPHIVKEIQDEQLDSLYRVPRKTSIDRKHYEDVVTGMRAAVTGGTCRVAGAILPDVEVCGKTGTAQNRGHDHSVFMGFAPMNNPKIAIAVYVENGGFGAVYGVPIGALMMEQYLKGKLSPEN” the “soluble on expression in E. coli” value was “not soluble”. In the case of “GIDPFTVRTRVSEGLVLAEPAKLMISTDGSASTADLTRATTTWNQQSNNLGASSKYVTSVLMDAGNTGVITITYVADQVGLPTAGNTLILSPYINDGNTRTALATAVAAGTRGTIDWACTSASNATATAQGFTGMAAGSVPQEFAPAQCR”, the “soluble on expression in E. coli” value is reported as “soluble”. In the case of “GINDLDISPIDPQTGGSFDQQGVFVKGYAMLGVTGQKGIDGSPDLDGQDEGESGFYRTTFNCNELPTDECLWAWQKNQDIPQLTSISWSPSSQRTEWVYVRLGYDITQYNFFLDQTEGMTDAETLRQRAEIRFLRALHYWYFLDLFGKAPFKEHFSNDLPVEKKGTELYTYIQNELNEIEADMYEPRQAPFGRADKAANWLLRARLYLNAGVYTGQTDYAKAEEYASKVIGSAYKLCTNYSELFMADNDENENAMQEIILPIRQDGVKTRNYGGSTYLVCGTRVAGMPRMGTTNGWSCIFARAAMVQKFFSNLEDVPMLPADVEIPTKGLDTDEQIDAFDAEHGIRTEDMIKAAGDDRALLYSGVGGGRRKIQTDAISGFTDGLSIVKWQNYRSDGKPVSHATYPDTDIPLFRLAEAYLTRAEAIFRQGGDATGDINELRKRANCTRKVQTVTEQELIDEWAREFYLEGRRRSDLVRFGMFTTNKYLWDWKGGAMNGTSVASYYNKYPIPVSDINNNRNMSQNEGYK”, the “soluble on expression in E. coli” value is reported as “soluble”. With “GKDFTYNASLTFSHARNEIRNMDEPATKTAYRKQEGHPINQYFGLVCDGFVTQADLNNPDFPVSTFGNVQVGDLKYRDMNGDGFIDSRDETFIGYSDVPENTYALSLGCEYKGIGFSIMFQGVDHVSRYYDAEAMYAFVNGGKVKEHHLNRWNPNQSEAYNLTHASYPLLHYDSYGDHNQRKNSFFLKNGNFLRLKNIELSYSLPARWIRKVAMNECRVYVNANNLITWDKLDGLCDPESEGSNRYPIMKTVNFGVNIKF” the “soluble on expression in E. coli” value was “not soluble”.
